Assay results published in the supplement of paper PMC12667976.
± gives the standard error.

B1: library; numbered along this chain (parent)
chain: MATDAALRRLLRLHRTEIAVAVDSAFPLLHALADHDVVPEDKFQETLHLKEKEGCPQAFHALLSWLLTQDSTAILDFWRVLFKDYNLERYGRLQPILDSFPKDVDLSQPRKGRKPPAVPKALVPPPRLPTKRKASEEARAAAPAALTPRGTASPGSQLKAKPPKKPESSAEQQRLPLGNGIQTMSASVQRAVAMSSGDVPGARGAVEGILIQQVFESGGSKKCIQVGGEFYTPSKFEDSGSGKNKARSSSGPKPLVRAKGAQGAAPGGGEARLGQQGSVPAPLALPSDPQLHQKNEDECAVCRDGGELICCDGCPRAFHLACLSPPLREIPSGTWRCSSCLQATVQEVQPRAEEPRPQEPPVETPLPPGLRSAGEEVRGPPGEPLAGMDTTLVYKHLPAPPSAAPLPGLDSSALHPLLCVGPEGQQNLAPGARCGVCGDGTDVLRCTHCAAAFHWRCHFPAGTSRPGTGLRCRSCSGDVTPAPVEGVLAPSPARLAPGPAKDDTASHEPALHRDDLESLLSEHTFDGILQWAIQSMARPAAPFPS

Variants of: B1
Test: AIRE transcriptional activation functional score (insulin promoter-GFP; nonsense median 0, synonymous median 1) (normalised score); higher = higher AIRE activity (more reporter activation)
Details: with insulin promoter-GFP reporter in HEK293
Outline: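 Functional scores come from comparing select with non-select enrichment of each variant and subtracting wild type. Codon-optimized AIRE NNN-codon libraries across three regions were integrated via Bxb1 recombinase into HEK293 landing-pad cells with an insulin core promoter-GFP reporter, and integrants sorted at day 7 were expanded 7 days before top 10% GFP and unselected populations were tile-sequenced. Variants needed 10 counts per million in non-select, and values were rescaled to nonsense median 0 and synonymous median 1 before averaging over biological replicates.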

Variant	AIRE transcriptional activation functional score
C310M	0.814 ± 0.11
T447R	0.679 ± 0.35
E237G	1.06 ± 0.24
A386F	1.74 ± 0.057
R8F	-0.127 ± 0.28
R247F	0.902 ± 0.26
R174M	0.283 ± 0.12
Q189I	0.169 ± 0.21
Q189L	0.207 ± 0.27
Q358C	0.97 ± 0.14
Q358Y	1.04 ± 0.092
Q358T	0.929 ± 0.26
Q358V	1.07 ± 0.28
Q342T	0.546 ± 0.32
S195P	0.83 ± 0.26
L75S	0.842 ± 0.35
V37K	0.536 ± 0.23
V37E	-0.336 ± 0.2
A142H	0.486 ± 0.85
P407E	0.454 ± 0.22
P407C	1.24 ± 0.33
G54I	0.416 ± 0.43
I181D	0.3 ± 0.12
R328A	0.877 ± 0.29

Variant	AIRE transcriptional activation functional score
P124Q	0.964 ± 0.14
P124V	1.65 ± 0.37
R445A	0.543 ± 0.18
V22S	-0.103 ± 0.51
C419T	1.2 ± 0.26
P326A	0.645 ± 0.45
P286M	1.36 ± 0.059
P286E	1 ± 0.042
P286H	0.652 ± 0.12
G242D	0.951 ± 0.22
V377M	0.944 ± 0.28
V436Q	0.854 ± 0.3
L128F	1.43 ± 0.27
V192R	0.721 ± 0.25
P115I	0.466 ± 0.77
A541D	0.469 ± 0.25
A541H	0.976 ± 0.41
R433D	0.895 ± 0.059
S338G	1.11 ± 0.23
D4W	0.262 ± 0.053
K253I	0.921 ± 0.25
A404K	1.05 ± 0.12
A404P	1.28 ± 0.2
Q276I	1.83 ± 0.08

Variant	AIRE transcriptional activation functional score
Q276H	1.26 ± 0.15
P357H	0.925 ± 0.15
G431S	0.927 ± 0.24
H14P	-0.256 ± 0.64
R356Q	0.912 ± 0.12
C337Q	1.5 ± 0.4
E207R	0.167 ± 0.16
L414T	1.14 ± 0.16
L414F	1.41 ± 0.075
P148F	1.53 ± 0.23
G91H	-0.774 ± 0.27
G91D	-0.369 ± 1.1
P109M	2.55 ± 0.077
P405S	1.05 ± 0.31
R79L	0.11 ± 0.67
S249V	1.12 ± 0.18
T334W	1.39 ± 0.14
T334V	0.952 ± 0.29
K245P	1.07 ± 0.11
K245Y	1.21 ± 0.1
K245H	1.35 ± 0.17
K245M	0.0585 ± 0.082
S476K	0.603 ± 0.21
S476P	1.02 ± 0.29

Variant	AIRE transcriptional activation functional score
S476L	0.829 ± 0.29
R203G	0.547 ± 0.25
L93R	0.0258 ± 0.41
P381E	1.26 ± 0.45
P381I	0.705 ± 0.26
P381Q	1.35 ± 0.12
S64I	-0.0655 ± 0.31
R9V	0.133 ± 0.31
E229P	0.679 ± 0.25
E229N	0.433 ± 0.24
T441Y	1.12 ± 0.098
K131G	-0.226 ± 0.29
D288L	1.19 ± 0.34
D288I	1.38 ± 0.21
A317T	0.717 ± 0.36
P492A	0.732 ± 0.5
P56A	0.549 ± 0.53
P56R	0.352 ± 0.45
G387L	1.35 ± 0.061
S107G	0.704 ± 0.72
R190G	0.592 ± 0.14
E376G	0.776 ± 0.12
E137N	0.174 ± 0.43
P129K	1.07 ± 0.73

Variant	AIRE transcriptional activation functional score
K222G	0.393 ± 0.26
K222N	0.679 ± 0.078
E354H	1.1 ± 0.14
E354R	1.14 ± 0.2
G477R	0.787 ± 0.29
W335S	1.27 ± 0.35
L87D	0.374 ± 0.27
S169I	1.2 ± 0.35
V80M	0.629 ± 0.25
R127G	0.421 ± 0.18
V362Y	1.31 ± 0.2
G421D	1.83 ± 0.15
E171T	1.52 ± 0.65
F77W	-0.255 ± 0.2
F77V	0.192 ± 0.17
H512C	-0.3 ± 0.26
H512D	0.939 ± 0.065
P331D	1.29 ± 0.33
H507E	0.521 ± 0.096
D76T	0.0165 ± 0.26
P95E	0.792 ± 0.26
P95N	1.56 ± 0.42
A264F	1 ± 0.22
A141P	0.97 ± 0.31

Variant	AIRE transcriptional activation functional score
D514S	0.341 ± 0.15
D514G	0.3 ± 0.27
R303G	1.34 ± 0.12
G306W	0.744 ± 0.018
K133M	-0.0607 ± 0.074
S278C	0.735 ± 0.17
K235C	1.5 ± 0.14
A21T	-0.00846 ± 0.33
P497S	0.852 ± 0.26
P497G	1.29 ± 0.38
K83Y	-0.194 ± 0.5
L327F	1.21 ± 0.13
L406E	1.12 ± 0.1
I309K	0.472 ± 0.41
F230S	0.473 ± 0.15
A300P	1.05 ± 0.12
P430D	0.951 ± 0.054
P430K	0.999 ± 0.086
A343C	0.944 ± 0.16
G467I	0.79 ± 0.5
G467P	1.04 ± 0.11
K50T	0.51 ± 0.5
P101M	0.0755 ± 0.13
L146K	0.924 ± 0.47

Variant	AIRE transcriptional activation functional score
G180V	0.54 ± 0.23
Q182F	-0.279 ± 0.19
A202S	0.848 ± 0.25
V487H	0.858 ± 0.48
P350R	1.18 ± 0.23
P350W	1.02 ± 0.042
Q94H	0.885 ± 0.24
E423C	0.459 ± 0.22
E423I	1.05 ± 0.21
G274K	1.24 ± 0.055
S234M	1.15 ± 0.059
K164S	1.22 ± 0.41
K164V	0.666 ± 0.47
M536T	1.15 ± 0.46
T364H	1.07 ± 0.46
L366Q	0.884 ± 0.12
L366M	0.554 ± 0.07
L366N	0.777 ± 0.071
A373K	1.02 ± 0.2
P481F	1.16 ± 0.26
L158R	0.202 ± 0.6
L495P	0.262 ± 0.12
K501D	0.395 ± 0.075
